This data set has as its system Escherichia coli TOP10. Nature of the data set: shrunken log2 fold change of peptide-encoding DNA abundance (4.5 h post-induction vs induction); higher = less antimicrobial activity (less host growth inhibition). The note with it: time post-induction: 4.5 h; library: site-saturation at positions 5, 18, 19, 20.
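Further: peptides expressed intracellularly from a pBAD plasmid library in pooled LB shake-flask culture, induced with 0.3% L-arabinose, DNA abundance read by NGS, three biological replicates, DESeq2 with apeglm shrinkage.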

Regarding RRIRKRPPRLPRPRPRPDNCPRP, the “shrunken log2 fold change” value was -0.0122.

Consider RRIRRRPPRLPRPRPRPQVCPRP, for which the “shrunken log2 fold change” value was -0.175. With RRIRSRPPRLPRPRPRPIYTPRP, the “shrunken log2 fold change” value was -0.548. Consider RRIRKRPPRLPRPRPRPWCHPRP, for which the “shrunken log2 fold change” value is -0.15.

On to RRIRPRPPRLPRPRPRPHHEPRP, for which the “shrunken log2 fold change” value was -0.066.

For the sequence RRIRARPPRLPRPRPRPMCWPRP, the “shrunken log2 fold change” value is 0.737. RRIRLRPPRLPRPRPRPDAPPRP: the “shrunken log2 fold change” value is 0.313.

For the sequence RRIRWRPPRLPRPRPRPNGNPRP, the “shrunken log2 fold change” value worked out at 0.0106. In the case of RRIRARPPRLPRPRPRPLRRPRP, the “shrunken log2 fold change” value came to 1.15. For RRIRKRPPRLPRPRPRPPPEPRP the value was 1.32; for RRIRTRPPRLPRPRPRPFCKPRP, -0.132. RRIRTRPPRLPRPRPRPRAFPRP: the “shrunken log2 fold change” value is 0.184.

On to RRIRKRPPRLPRPRPRPLQRPRP, for which the “shrunken log2 fold change” value worked out at 0.331. For RRIRQRPPRLPRPRPRPRQPPRP, the “shrunken log2 fold change” value stood at 0.622.

For RRIRHRPPRLPRPRPRPRTFPRP, the “shrunken log2 fold change” value was determined as 0.147. To RRIRGRPPRLPRPRPRPQSCPRP belongs 0.195.

As to RRIRRRPPRLPRPRPRPFCWPRP, the “shrunken log2 fold change” value was determined as 0.45. In the case of RRIRSRPPRLPRPRPRPPIVPRP, the “shrunken log2 fold change” value is -0.0118.

For RRIRYRPPRLPRPRPRPGRGPRP, the “shrunken log2 fold change” value worked out at 0.254. In the case of RRIRRRPPRLPRPRPRPLPSPRP, the “shrunken log2 fold change” value amounted to 0.752. For RRIRARPPRLPRPRPRPVMVPRP the value was 0.0116; for RRIRYRPPRLPRPRPRPNPFPRP, -0.0444; for RRIRGRPPRLPRPRPRPRQGPRP, 0.654. As for RRIRGRPPRLPRPRPRPNFQPRP, the “shrunken log2 fold change” value is 0.122. To RRIRARPPRLPRPRPRPTNWPRP belongs 0.835; to RRIRNRPPRLPRPRPRPPRKPRP, 0.523. For the sequence RRIRVRPPRLPRPRPRPDVKPRP, the “shrunken log2 fold change” value was -0.0375. Regarding RRIRRRPPRLPRPRPRPEKKPRP, the “shrunken log2 fold change” value was found to be 0.0396. For RRIRGRPPRLPRPRPRPNIMPRP the value was 0.0649; for RRIRYRPPRLPRPRPRPVTRPRP, -0.129. Take RRIRFRPPRLPRPRPRPMYCPRP: the “shrunken log2 fold change” value was -0.541. RRIRCRPPRLPRPRPRPINQPRP: the “shrunken log2 fold change” value was -0.485. To RRIRCRPPRLPRPRPRPHIEPRP belongs -0.856; to RRIRERPPRLPRPRPRPKCEPRP, 0.0279. Take RRIRNRPPRLPRPRPRPFNEPRP: the “shrunken log2 fold change” value was -0.198. Take RRIRRRPPRLPRPRPRPQSKPRP: the “shrunken log2 fold change” value was -0.0754. Turning to RRIRARPPRLPRPRPRPFRMPRP, the “shrunken log2 fold change” value was -0.184. On to RRIRGRPPRLPRPRPRPCPLPRP, for which the “shrunken log2 fold change” value was -0.0214. RRIRFRPPRLPRPRPRPCEKPRP: the “shrunken log2 fold change” value is 0.00738. For the sequence RRIRARPPRLPRPRPRPNVRPRP, the “shrunken log2 fold change” value was found to be 0.0345. As to RRIRTRPPRLPRPRPRPAHDPRP, the “shrunken log2 fold change” value was 0.268. As for RRIRNRPPRLPRPRPRPMSQPRP, the “shrunken log2 fold change” value was -0.0161. Consider RRIRERPPRLPRPRPRPEFCPRP, for which the “shrunken log2 fold change” value is 0.112.

For the sequence RRIRVRPPRLPRPRPRPHAMPRP, the “shrunken log2 fold change” value is -0.18. Take RRIRMRPPRLPRPRPRPLPQPRP: the “shrunken log2 fold change” value is 0.742. As for RRIRGRPPRLPRPRPRPFYQPRP, the “shrunken log2 fold change” value is 0.0158.

As for RRIRARPPRLPRPRPRPKYLPRP, the “shrunken log2 fold change” value is -0.299. For RRIRRRPPRLPRPRPRPRFNPRP, the “shrunken log2 fold change” value was -0.189. Regarding RRIRCRPPRLPRPRPRPPWWPRP, the “shrunken log2 fold change” value turned out to be 2.01. Regarding RRIRLRPPRLPRPRPRPASQPRP, the “shrunken log2 fold change” value is -0.18. For the sequence RRIRCRPPRLPRPRPRPEEKPRP, the “shrunken log2 fold change” value worked out at 0.0239. For the sequence RRIRARPPRLPRPRPRPNMLPRP, the “shrunken log2 fold change” value is -0.424.

Consider RRIRPRPPRLPRPRPRPPCCPRP, for which the “shrunken log2 fold change” value is -0.0155. Consider RRIRWRPPRLPRPRPRPQQIPRP, for which the “shrunken log2 fold change” value was -0.0385.

For the sequence RRIRVRPPRLPRPRPRPCHFPRP, the “shrunken log2 fold change” value was -0.0858. For the sequence RRIRVRPPRLPRPRPRPQFEPRP, the “shrunken log2 fold change” value was -0.119.

For RRIRGRPPRLPRPRPRPFENPRP, the “shrunken log2 fold change” value turned out to be 0.0511. For the sequence RRIRGRPPRLPRPRPRPIGEPRP, the “shrunken log2 fold change” value stood at 0.187.

On to RRIRQRPPRLPRPRPRPGGNPRP, for which the “shrunken log2 fold change” value is -0.0842. For the sequence RRIRPRPPRLPRPRPRPGVCPRP, the “shrunken log2 fold change” value was determined as 0.428. For RRIRKRPPRLPRPRPRPWCGPRP the value was 0.153; for RRIRHRPPRLPRPRPRPYNHPRP, -0.316. For RRIRSRPPRLPRPRPRPRFNPRP the value was -0.153. Take RRIRDRPPRLPRPRPRPMGGPRP: the “shrunken log2 fold change” value came out at 0.0169. For the sequence RRIRYRPPRLPRPRPRPNRNPRP, the “shrunken log2 fold change” value was -1.

For RRIRCRPPRLPRPRPRPVESPRP, the “shrunken log2 fold change” value is -0.0217. As to RRIRHRPPRLPRPRPRPRTPPRP, the “shrunken log2 fold change” value was determined as 0.314. RRIRCRPPRLPRPRPRPMFEPRP: the “shrunken log2 fold change” value is -0.212. RRIRGRPPRLPRPRPRPWYIPRP: the “shrunken log2 fold change” value was -0.291.

On to RRIRWRPPRLPRPRPRPHVWPRP, for which the “shrunken log2 fold change” value is 0.126. For RRIRHRPPRLPRPRPRPVAVPRP the value was -0.0993; for RRIRGRPPRLPRPRPRPYKFPRP, -0.138. For RRIRCRPPRLPRPRPRPLSVPRP the value was -0.481; for RRIRERPPRLPRPRPRPRPHPRP, 0.791. As to RRIRLRPPRLPRPRPRPCVGPRP, the “shrunken log2 fold change” value was -0.0253. In the case of RRIRKRPPRLPRPRPRPPVAPRP, the “shrunken log2 fold change” value was 0.974. For the sequence RRIRQRPPRLPRPRPRPLPAPRP, the “shrunken log2 fold change” value came to 0.214. To RRIRWRPPRLPRPRPRPYIPPRP belongs -1.15; to RRIRHRPPRLPRPRPRPFMEPRP, -1. Regarding RRIRLRPPRLPRPRPRPSAQPRP, the “shrunken log2 fold change” value turned out to be 0.0425. With RRIRPRPPRLPRPRPRPEKAPRP, the “shrunken log2 fold change” value turned out to be 0.385. Take RRIRWRPPRLPRPRPRPRVHPRP: the “shrunken log2 fold change” value amounted to 0.341. Regarding RRIRNRPPRLPRPRPRPQYMPRP, the “shrunken log2 fold change” value was -1.16.

For RRIRHRPPRLPRPRPRPYVQPRP, the “shrunken log2 fold change” value was -1.29. For RRIRMRPPRLPRPRPRPAWYPRP the value was 0.177; for RRIRTRPPRLPRPRPRPDWWPRP, 0.016. As for RRIRLRPPRLPRPRPRPKPQPRP, the “shrunken log2 fold change” value came out at 0.212. For RRIRRRPPRLPRPRPRPCSVPRP the value was 0.178; for RRIRHRPPRLPRPRPRPCDQPRP, -0.000946.

On to RRIRRRPPRLPRPRPRPQEEPRP, for which the “shrunken log2 fold change” value was found to be 0.0332. Consider RRIRVRPPRLPRPRPRPITKPRP, for which the “shrunken log2 fold change” value turned out to be 0.0714. For the sequence RRIRDRPPRLPRPRPRPRFYPRP, the “shrunken log2 fold change” value is 0.386. For RRIRDRPPRLPRPRPRPPVMPRP the value was -0.435; for RRIRYRPPRLPRPRPRPNQPPRP, -0.0705; for RRIRQRPPRLPRPRPRPMGWPRP, 0.379. As for RRIRKRPPRLPRPRPRPCCPPRP, the “shrunken log2 fold change” value was -0.044. Turning to RRIRPRPPRLPRPRPRPGIWPRP, the “shrunken log2 fold change” value stood at 0.157.

As for RRIRNRPPRLPRPRPRPCGPPRP, the “shrunken log2 fold change” value is -0.0549.

For RRIRQRPPRLPRPRPRPMNIPRP, the “shrunken log2 fold change” value was -0.809. To RRIRWRPPRLPRPRPRPWRHPRP belongs -0.141; to RRIRYRPPRLPRPRPRPYVVPRP, -0.24; to RRIRTRPPRLPRPRPRPGNQPRP, -0.0161. On to RRIRVRPPRLPRPRPRPNDSPRP, for which the “shrunken log2 fold change” value is -0.326.

In the case of RRIRYRPPRLPRPRPRPHDEPRP, the “shrunken log2 fold change” value was -0.0568.

In the case of RRIRMRPPRLPRPRPRPKDNPRP, the “shrunken log2 fold change” value is 1.43. For RRIRDRPPRLPRPRPRPVGIPRP the value was -0.0542.

Turning to RRIRGRPPRLPRPRPRPHANPRP, the “shrunken log2 fold change” value turned out to be 0.361. Regarding RRIRYRPPRLPRPRPRPPFVPRP, the “shrunken log2 fold change” value is -0.304. Regarding RRIRTRPPRLPRPRPRPYVKPRP, the “shrunken log2 fold change” value is -0.221. On to RRIRTRPPRLPRPRPRPFHKPRP, for which the “shrunken log2 fold change” value was found to be 0.0244. Regarding RRIRIRPPRLPRPRPRPHLDPRP, the “shrunken log2 fold change” value is 0.178.

For the sequence RRIRKRPPRLPRPRPRPWMLPRP, the “shrunken log2 fold change” value is -0.266. Take RRIRYRPPRLPRPRPRPFYPPRP: the “shrunken log2 fold change” value is -0.747. Regarding RRIRTRPPRLPRPRPRPLEEPRP, the “shrunken log2 fold change” value is -0.0207.

Turning to RRIRIRPPRLPRPRPRPCWTPRP, the “shrunken log2 fold change” value was -0.281. To RRIRNRPPRLPRPRPRPNIMPRP belongs -0.599; to RRIRIRPPRLPRPRPRPQQMPRP, -0.0189. For RRIRQRPPRLPRPRPRPKHRPRP, the “shrunken log2 fold change” value is -0.0509. Take RRIRCRPPRLPRPRPRPHMCPRP: the “shrunken log2 fold change” value turned out to be 0.099. For the sequence RRIRSRPPRLPRPRPRPSGEPRP, the “shrunken log2 fold change” value was 0.406. Consider RRIRTRPPRLPRPRPRPSRGPRP, for which the “shrunken log2 fold change” value stood at 0.178.

For the sequence RRIRQRPPRLPRPRPRPGVGPRP, the “shrunken log2 fold change” value turned out to be 0.18.

As for RRIRMRPPRLPRPRPRPARLPRP, the “shrunken log2 fold change” value was 0.201. For the sequence RRIRKRPPRLPRPRPRPPAAPRP, the “shrunken log2 fold change” value is 0.932.

Regarding RRIRCRPPRLPRPRPRPYHAPRP, the “shrunken log2 fold change” value was -0.585.

Source of the values: the supplement of paper PMC9112550, “Optimization of the antimicrobial peptide Bac7 by deep mutational scanning” (BMC Biology, 2022).
